Changes are numbered by the printed parent chain.
B1: Table 1 Line # 37 antibody (SP_B_cell) (antibody, human IgG4, V domains shown)
VH: QVHLVESGGDVVQPGRSLRLSCAASGFTFSYYGMHWVRQAPFKGLEWVAVIWYDGSNKYYADSVKGRFTITRDNSKNTVYLQMNSLRAEDTAIYYCARWGGFGVTGTHLDYWGQGTLVTVSS
VL: DIQLTQSPSLLSASVGDRVTITCWASQDIAGHFAWYQQKPGTVPKLLIYAISTLDSGVPSRFSGSRSGTEFTLTISSLQPEDFATYYCQHLNSYPYTFGQGTKLEIK
notes: Cloned with human IgG4/human Igk constants for Kd; barcode counts are of the source cell's own IgG
B2: Table 1 Line # 53 antibody (SP_Plasma_cell) (antibody, human IgG4, V domains shown)
VH: EIQLVESGGGLVQPGRSLRLSCAASGFTFDDYAMHWVRQAPGKGLEWVSGINWNNGSLGYADSVKGRFTISRDNAKNSLYLQMNSLRTEDTALYYCVKDTGSWASYYGMDVWGHGTTVTVSS
VL: DIQMTQSPSSLSASIGDRVTITCRASQGIRNDLGWYQQKPGKAPKRLIYAASSLQSGVPSRFSGSGSGTEFTLTISSLQPEDFATYYCLQHNSYPYTFGQGTKLEIK
notes: as for B1
B3: Table 1 Line # 54 antibody (SP_Plasma_cell) (antibody, human IgG4, V domains shown)
VH: QVQLVQSGAEVKKPGASVKVSCKASGYTFTNYGISWVRQAPGQGLEWMGWISVYNGNTNYAQKLQGRVTMTTDTSTSTAYMEVRSLRSDDTAVYYCARGVNWNYVFDYWGQGTLVTVSS
VL: B2 VL with I15V, A50V, A51V, Y96W, L104V
notes: as for B1
B4: Table 1 Line # 2 antibody (BM_Plasma_cell) (antibody, human IgG4, V domains shown)
VH: EVRLVESGGGLVQPGRSLRLSCAASGFTFDDYAMHWVRQAPGRGLEWVSGISWKGDALGYADSVKGRFTISRDNAKNSLYLQMSSLRAEDTALYYCAKDTGSYHYYYGLDVWGQGTTVAVSS
VL: DIQMTQSPSSLSASVGDRVTITCRASQGIRTDLGWYQQKPGKAPKRLIYAASNLHGGVPSRFSGTGSGTDFTLTISSLQPEDFATFFCLQHYSYPLTFGGGTKVEIK
notes: as for B1
B5: Table 1 Line # 41 antibody (SP_Plasma_cell) (antibody, human IgG4, V domains shown)
VH: B4 VH with R3Q, A119T
VL: B4 VL with T31N, K45E, H55Q, G56S, T65S, D70E, F87Y
notes: as for B1
B6: Table 1 Line # 1 antibody (BM_Plasma_cell) (antibody, human IgG4, V domains shown)
VH: EVQLVESGGGLVKPGGSLRLSCAASGFTFSSYSMNWVRQAPGKGLEWVSSISSSSSYIYYADSVKGRFTISRDNAKNSLYLQMNSLRAEDTAVYYCASLAARPFWGQGTMVTVSS
VL: DIQMTQSPSSVSASVGDRVTITCRASQGISSWLAWYQQKPGRAPKLLIYAASSLQSGVPSRFSGSGSGTDFTLTISSLQPEDFATYYCQQANSFPLTFGGGTKVEIK
notes: as for B1
B7: Table 1 Line # 35 antibody (SP_B_cell) (antibody, human IgG4, V domains shown)
VH: EVQLVESGGGLVKPGGSLRLSCAASGFTFSSYSMNWVRQAPGKGLEWVSSISSSSSYIYYADSVKGRFTISRDNAKNSLYLQMNSLRAEDTAVYYCARDRSSSPLENWGQGTLVTVSS
VL: B6 VL with R42K, L96I, G100Q, K103R, V104L
notes: as for B1
B8: Table 1 Line # 13 antibody (BM_Plasma_cell) (antibody, human IgG4, V domains shown)
VH: EVQLVESGGEMIRPGGSLRLSCAASGFIFDDYGMSWIRQAPGKGLEWVSGINWNGGHTGYSDSVKGRFTISRDNAKNSLYLQMNSLRAEDTALYHCVRDSSSSWYGVFDYWGQGTLVTVSS
VL: DIQMTQSPSSLSASVGDRVTITCRASQGISNSLAWYQQKPGTVPKLLIFAASTLLSGIPSRFSGGGSGTDFTLTISSLQPEDVATYYCQNYNSAPRTFGQGTKVEIK
notes: as for B1
B9: Table 1 Line # 7 antibody (BM_Plasma_cell) (antibody, human IgG4, V domains shown)
VH: EVQLVESGGGLVQPGRSLRLSCAASGFTFDDYAMHWVRQAPGKGLEWVSGISWNGASIGYADSLKGRFTISRDNAKNSLYLQMNSLRSEDTALFYCARDYSSAWYGYFDYWGQGTLVTVSS
VL: B8 VL with G28D, S32Y, T42K, F49Y, L55Q, I58V, G65S, A94V
notes: as for B1
B10: Table 1 Line # 16 antibody (BM_Plasma_cell) (antibody, human IgG4, V domains shown)
VH: EVQLVESGGGLVQPGRSLRLSCAASGFTFDDYGMHWVRQAPGKGLEWVSGISWNSGHIGYADSVKGRFTISRDNAKNSLNLQMNSLRAEDTALYYCAKDISSSWYGYFDLWGRGTLVTVSS
VL: B8 VL with S32F, Y36F, T42K, F49Y, L55Q, I58V, G65S, N90E
notes: as for B1
B11: Table 1 Line # 21 antibody (SP_B_cell) (antibody, human IgG4, V domains shown)
VH: EVQLVESGGGVVRPGGSLRLSCAASGFTFDDYGMSWVRQAPGKGLEWVSGINWNGGSTGYADSVKGRFTMSRDNAKKSLYLQMNSLRAEDTAFYHCARDDSSSLYGYFQHWGQGTLVTVSS
VL: B8 VL with N31I, S32Y, T42K, F49Y, L55Q, I58V, G65S
notes: as for B1
B12: Table 1 Line # 15 antibody (BM_Plasma_cell) (antibody, human IgG4, V domains shown)
VH: B9 VH with G10A, T28A, I58L
VL: B8 VL with G28D, S32Y, T42K, F49Y, L55Q, I58V, G65S, E81Q, A94V
notes: as for B1
B13: Table 1 Line # 11 antibody (BM_Plasma_cell) (antibody, human IgG4, V domains shown)
VH: B9 VH with G55S, A56G, L64V, S88A, F94Y, Y110S
VL: B8 VL with S30N, S32Y, T42K, V43I, A50T, L55Q, I58V, G65S, S76N, A94V
notes: as for B1
B14: Table 1 Line # 24 antibody (SP_B_cell) (antibody, human IgG4, V domains shown)
VH: EVQLVESGGDLVQPGTSLRLSCAASGFTFDDYAMHWVRQTPGQGLEWVSGINWNSGTIGYADSVKGRFTISRDNAKNSLFLQMNSLRAEDSAFYYCTKDIGGSYYASDFWGQGTLVTVSS
VL: DIQMTQSPSSLSASVGDRVTITCRASQRISTDLNWYQQKSGKAPNLLIYGASSLQSGVPSRFSGSGSGTDFILTISTLQPEDFATYYCQQSYSTPFTFGPGTKVDIK
notes: as for B1
B15: Table 1 Line # 31 antibody (SP_B_cell) (antibody, human IgG4, V domains shown)
VH: B9 VH with G55S, A56G, S57N, L64V, K76N, S88A, F94Y, R98K
VL: not shown
notes: as for B1
B16: Table 1 Line # 4 antibody (BM_Plasma_cell) (antibody, human IgG4, V domains shown)
VH: B10 VH with Y32F, G33A, H57S, N80Y, A97T, I100S
VL: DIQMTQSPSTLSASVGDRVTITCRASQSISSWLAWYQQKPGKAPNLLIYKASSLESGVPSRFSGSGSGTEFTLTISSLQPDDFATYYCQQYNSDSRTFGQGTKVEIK
notes: as for B1
B17: Table 1 Line # 19 antibody (BM_Plasma_cell) (antibody, human IgG4, V domains shown)
VH: B9 VH with Y32F, A40E, A56G, S57N, L64V, S88A, L93F, F94Y, R98K, Y100V
VL: DIQMTQSPSTLSASVGDRVTITCRASQSVSSWLAWYQQKPGKAPKLLIYKASSLESGVPLRFSGSGSGTEFTLTISSLQPDDFATYYCQVYNSDSRTFGQGTKVEIK
notes: as for B1
B18: Table 1 Line # 40 antibody (SP_Plasma_cell) (antibody, human IgG4, V domains shown)
VH: QVQLQESGPGLVKPSETLSLTCTISGGSISTYYWSWIRQPPGKGLEWIGYIYYSGNTNYNPSLKSRVTISVDTSKNQFSLKLNSVTAADTAVYYCARHRGSYVYGMDVWGQGTTVTVSS
VL: DIQMTQSPSSLSASLVDRVTITCRASQTISSYLNWYQQKPGKAPKLLIYGASILQSGVPSRFSGSGSGTDFTLTISSLQPEDHAVYFCQQSYSSPTFGGGTKVEIK
notes: as for B1
B19: Table 1 Line # 34 antibody (SP_B_cell) (antibody, human IgG4, V domains shown)
VH: EVQLVASGGDLVQPGRSLRLSCAASGFTFDDFGMHWVRQAPGKGLEWVSGISWNGGHMGYAASVKGRFTMSRDNAKNSLYLQMNSLRVEDTALYYCVKEFSSSWYGFFDLWGRGTLVTVSS
VL: DIQMTQSPSSLSASVGDRVTITCRASQGLGNSVAWYQQKPGQIPRLLISAAASLQSGVPSRFSGSGSGTDFTLTISSLQPEDVATYYCQNYNSAPRTFGQGTNVEIK
notes: as for B1
B20: Table 1 Line # 46 antibody (SP_Plasma_cell) (antibody, human IgG4, V domains shown)
VH: B19 VH with V5E, T28I, M58I, A62D, M70I, V88A, V97A, F100H, L110F
VL: B19 VL with G30S, S77R
notes: as for B1
B21: Table 1 Line # 49 antibody (SP_Plasma_cell) (antibody, human IgG4, V domains shown)
VH: EVHLLESGGGFIQPGGSLRLSCAASGFTFSTYAMNWVRLAPGKGLEWVSTISGSGGFTSYTDSVQGRFTISRDNSKNKLYLQINNLTAEDTAVYYCAKDRRIVGATGFDYWGQGALVTVSS
VL: DIQMTQSPSSLSASAGDRVTITCRASQSISSYLNWYQQKPGKAPKLLIYAASSLQSGVPSRFSGSGSGTDFTLTISSLQPEDSATYYCQQSYGFHTFGQGTRLEIK
notes: as for B1
B22: Table 1 Line # 42 antibody (SP_Plasma_cell) (antibody, human IgG4, V domains shown)
VH: EVQLLESGGGLVQPGGSLRLSCAASGFTFISYTLSWVRQAPGKGLEWVSAISGSGGSTYYVDSVKGRFTISRDNSRNTLYLQMNSLRAEDTAVYYCAKDLGSTVYWGQGTLVTVSS
VL: not shown
notes: as for B1
B23: Table 1 Line # 18 antibody (BM_Plasma_cell) (antibody, human IgG4, V domains shown)
VH: EVQLVQSGAEVKKPGESLKISCKGSGYRFTTNWIGWVRQMPGKGLEWMGIIYPDDSDTRYSPSFQGQVTISADKSINTAYLHWNSLKSSDTAIYYCARGANWFDPWGQGTLVTVSS
VL: EIVLTQSPGILSLSPGKRATLSCRASQSVSSNFLAWYQQKPGQAPRLLIYGTSSRANGIPDRFSGSGSGTDFTLTISGLEPEDFAEYYCQQYGSSVTFGQGTRLEIK
notes: as for B1

biological target: T1, human IL-4Rα (hIL-4Rα) monomeric protein (human, UniProt P24394 26-232, limits assumed); test: Biacore (SPR)
T1 construct: also called hIL-4Rα antigen; barcoded hIL-4Rα

Row | Kd [nM] | Binder
1 | 197 | B1
2 | 247 | B2
3 | 13.5 | B3
4 | 161 | B4
5 | 150 | B5
6 | 416 | B6
7 | 29.3 | B7
8 | 58.2 | B8
9 | 15.5 | B9
10 | 8.04 | B10
11 | 177 | B11
12 | 19.9 | B12
13 | 27.5 | B13
14 | 207 | B14
15 | 133 | B15
16 | 158 | B16
17 | 12.1 | B17
18 | 118 | B18
19 | 34.2 | B19
20 | 49.2 | B20
21 | 132 | B21
22 | 127 | B22
23 | 41.4 | B23

biological target: T1, human IL-4Rα (hIL-4Rα) monomeric protein; test: Biacore (SPR); negative log10 of Kd

Row | negLog10Kd | Binder
24 | 6.71 | B1
25 | 6.61 | B2
26 | 7.87 | B3
27 | 6.79 | B4
28 | 6.82 | B5
29 | 6.38 | B6
30 | 7.53 | B7
31 | 7.24 | B8
32 | 7.81 | B9
33 | 8.09 | B10
34 | 6.75 | B11
35 | 7.7 | B12
36 | 7.56 | B13
37 | 6.68 | B14
38 | 6.88 | B15
39 | 6.8 | B16
40 | 7.92 | B17
41 | 6.93 | B18
42 | 7.47 | B19
43 | 7.31 | B20
44 | 6.88 | B21
45 | 6.9 | B22
46 | 7.38 | B23

biological target: T1, human IL-4Rα (hIL-4Rα) monomeric protein; test: barcoded-antigen count on source cell (scRNA-seq)

Row | REGN560.L15_ab_raw [counts] | Binder
47 | 6230 | B1
48 | 818 | B2
49 | 815 | B3
50 | 6540 | B4
51 | 2460 | B5
52 | 11200 | B6
53 | 6710 | B7
54 | 2930 | B8
55 | 4140 | B9
56 | 2370 | B10
57 | 17400 | B11
58 | 2580 | B12
59 | 3210 | B13
60 | 10800 | B14
61 | 8520 | B15
62 | 5050 | B16
63 | 2060 | B17
64 | 5520 | B18
65 | 6890 | B19
66 | 1520 | B20
67 | 1200 | B21
68 | 2080 | B22
69 | 2170 | B23
